Positions count from the first letter of the chain named. Numbers in names are those of the source. Where “and” joins values, the source holds several entries; their conditions need not be identical. Equal entries are not always repeated. Entries after “also recorded” stand apart in the source; their conditions may differ.

In data set [1] the test system is E. coli strain CFT073 agglutination of human red blood cells. The data set is described as follows: PapG hemagglutination (HA) assay. Type of data set: cell-based. The following applies: pre-incubation with E. coli CFT073 WT strain, human RBC. Here is the method:
16. PapG Hemagglutination (HA) Assay
(§1) A PapG HA assay was developed based on procedures described previously. WT E. coli strain CFT073 bacteria were streaked out from a frozen glycerol stock for single colonies on a tryptic soy blood agar plate. To grow bacteria for use in the HA assay, bacteria were cultured overnight in Luria Bertani liquid media at 37° C. and shaking at 230 rpm. The next morning, bacteria were washed once with 1×PBS and normalized to an OD540 of 1.0 in PBS. 30 μL of bacteria were then placed in a V-bottom 96-well plate (Corning, 3894) and serially diluted across the plate. […] After this incubation, 60 μL of a 1.75% red blood cell (Human Red Blood Cells, Washed, Rockland Immunochemicals R407-0050) solution (diluted from 10% stock using 1×PBS) was added to all the wells in the plate. The plate was incubated for 2 hours at 4° C. and then imaged using a light box and camera or ImageQuant System. To collect quantitative data, assay plates were analyzed using a Clariostar instrument. Absorbance was measured at a wavelength of 540 nm, which was the maximum absorbance observed using an RBC only control well, and a read diameter of 4 mm within each well. Absorbance was normalized using blank controls (1×PBS only).
7. Development of a Hemagglutination (HA) Assay as a Functional Assay to Evaluate Sera from PapG Immunized Animals. […]

Data set [2] addresses T1, E. coli CFT073 PapG-II lectin domain PapGLD variant N96S G104A, SEQ ID NO: 16 (Escherichia coli, UniProt A0A0H2VAQ6, G124A/N116S).
T1 sequence (A0A0H2VAQ6 with tags, fused parts or gaps N116S/G124A): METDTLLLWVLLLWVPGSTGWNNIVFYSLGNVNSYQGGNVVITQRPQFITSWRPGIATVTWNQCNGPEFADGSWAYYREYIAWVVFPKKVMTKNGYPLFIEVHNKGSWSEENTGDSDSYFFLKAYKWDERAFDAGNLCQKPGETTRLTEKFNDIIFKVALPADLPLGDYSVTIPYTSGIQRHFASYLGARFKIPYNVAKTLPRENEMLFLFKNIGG
The data set can be described thus: SYPRO orange thermal shift with GbO3. The following applies: shift in melting temperature in the presence of GbO3 vs apo; 3 replicates; PBS pH 7.4, 4% DMSO. The class given is binding. Here is the method:
(§2) PapG proteins were added to assay buffer (consisting of 4% DMSO, 1:1000 dilution of SYPRO orange (Invitrogen S6650) in PBS pH 7.4) at a final concentration of […]. Melt curves were analyzed in a QuantStudio 6 Real-time PCR system (ThermoFisher) using a dissociation protocol from 25° C. to 99° C., at 0.05° C./second. ROX was specified as the reporter.
(§3) The thermal stability of PapG WT and mutant proteins were determined using a SYPRO orange thermal shift-based differential scanning fluorimetry assay, wherein Tm designates the temperature at which 50% of the protein is unfolded. Non-covalent ligands often stabilize protein targets upon specific binding, resulting in an increase in protein melting temperature. Tm were therefore determined in the presence and absence of GbO3 for PapG, and the difference in Tm (ΔTm) of protein in the presence of ligand relative to the apo form was calculated.

Data set [3] deals with E. coli strain CFT073 (PapG-dependent agglutination of human red blood cells). The data set is described as follows: PapG hemagglutination (HA) assay. The following applies: pre-incubation of E. coli CFT073 WT strain with GbO3, then human RBCs. The class given is cell-based, Escherichia coli CFT073; human red blood cells. Here is the method:
as §1
PapG mediates the ability of E. coli to agglutinate human red blood cells (RBC).

A short description of data set [4]: PapG Luminex ligand binding assay with globoside GbO4. The settings on record: result in words. The procedure: 9. PapG Ligand Binding Assay with Globoside GbO4
To determine the ability of PapGLD mutants to bind the porcine derived globotetraosyl ceramide ligand GalNAc-Gal-Gal-Glc-ceramide (GbO4), a Luminex ligand binding assay was developed. Surfactant Protein-A (SP-A) was coupled to the surface of MagPlex beads by EDC/NHS, to capture the lipid tail of the globotetraosyl ceramide. The Globotetraosyl ceramide/SP-A beads were incubated with an eight-point threefold titration of PapG in a 96 well flat bottom white plate with final volume of 100 microliters of 50 mM HEPES PH 7.4, 10 mM NaCl, 0.0005% Tween 20 shaking at 300 rpm, 4° C. overnight. After 20-24 hours the ligand binding plates were read on a FlexMap 3D plate reader for measurement of well-bead region specific MFI. Ligand binding equilibrium dissociation constants (Kd) were calculated assuming one site specific binding and interpolated using non-linear curve fitting (GraphPad Prism) as the ligand concentration needed to achieve half-maximal binding. The Luminex derived apparent Kd values are based on approximately fifty bead counts per assay sample.
(§4) Binding of PapG proteins to GbO2 or GbO4 ligands was evaluated using a Luminex platform wherein ligands were coupled to MagPlex beads via surfactant protein A (for […]) or directly using […] conjugation (for […]). This assay was used to rank order binding affinities of the mutants, reported as Kd values interpolated from protein antigen titration curves (Table 7).

Data set [5] is described as follows: Thermal shift (SYPRO orange) melting temperature, apo form. Type of data set: physicochemical. The settings on record: apo state, PBS pH 7.4. Here is the method: as §2, §3
Data set [6] can be described thus: Thermal shift in the presence of GbO3. Type of data set: binding. The settings on record: in the presence of GbO3 relative to the apo form. The procedure: as §2
The thermal stability of PapG WT and mutant proteins were determined using a SYPRO orange thermal shift-based differential scanning fluorimetry assay, wherein Tm designates the temperature at which 50% of the protein is unfolded. Non-covalent ligands often stabilize protein targets upon specific binding, resulting in an increase in protein melting temperature.

The nature of data set [7]: PapG Luminex ligand binding assay with globoside compound GbO2Mpo. The settings on record: result in words. The procedure: 10. PapG Ligand Binding Assay with Globoside Compound GbO2Mpo
To determine Luminex ligand binding affinities of PapG mutants for the synthetic globoside ligand Gal-Glc-phenoxy-octyl-amine (GbO2Mpo), a Luminex ligand binding assay was developed based on the direct coupling of the amine reactive globoside ligand to the EDC/NHS activated carboxylic surface of MagPlex beads. Synthesis of GbO2Mpo ligand with an octyl amine linker (for coupling to beads) was performed via methods described previously. The GbO2Mpo beads were incubated with an 8-point, threefold titration of PapG in a 96-well flat bottom white plate with final volume of 100 μl of 50 mM HEPES pH 7.4, 10 mM NaCl, 0.0005% Tween 20 shaking at 300 rpm, 4° C. overnight. After 20-24 hours the ligand binding plates were read on a FlexMap 3D plate reader for measurement of well-bead region specific MFI.
as §4

With “Globotriaosylceramide [GbO3] [listing 1 of 2 here]”, the inhibition of hemagglutination result in data set [1] is reported as “efficiently blocks agglutination of RBCs; also recorded: concentration-dependent inhibition of hemagglutination”.

Take “Globotriaosylceramide [GbO3] [listing 2 of 2 here]”: the “ΔTm (Average)” value in data set [2] is < 0.5 °C and 0.22 °C. Besides, the “inhibition of hemagglutination (in words)” value in data set [3] is listed as “efficiently blocks agglutination of RBCs; also recorded: concentration-dependent inhibition of hemagglutination”.

B1: PapG^LD N96S R170A: PapG lectin domain N96S with R170A ligand binding site mutation; SEQ ID NO: 23 (protein)
chain: T1 sequence (A0A0H2VAQ6 with tags, fused parts or gaps N116S/G124A) with A124G, R190A
With B1, in data set [4], the “binding to GbO4 ligand” value is “prevent binding to GbO4; also recorded: lower the binding affinity; also recorded: eliminate ligand binding”. For the same molecule, the “Tm (Ave.)” value in data set [5] came out at 55.83 °C. Moreover, the “ΔTm (Average)” value in data set [6] stood at 0.33 °C.

B2: PapG^LD N96S K172A: PapG lectin domain N96S with K172A ligand binding site mutation; SEQ ID NO: 24 (protein)
chain: T1 sequence (A0A0H2VAQ6 with tags, fused parts or gaps N116S/G124A) with A124G, K192A
On to B2, for which, in data set [7], the “binding to GbO2 ligand” value is reported as “reduced binding”. The “binding to GbO4 ligand” value in data set [4] is on record as “prevent binding to GbO4; also recorded: reduced binding; also recorded: lower the binding affinity; also recorded: eliminate ligand binding”. Also, the “Tm (Ave.)” value in data set [5] stood at 56.38 °C. The “ΔTm (Average)” value in data set [6] is 0.42 °C.

B3: PapG^LD N96S W107A: PapG lectin domain N96S with W107A ligand binding site mutation; SEQ ID NO: 22 (protein)
chain: T1 sequence (A0A0H2VAQ6 with tags, fused parts or gaps N116S/G124A) with A124G, W127A
On to B3, for which the “binding to GbO4 ligand” value in data set [4] is “prevent binding to GbO4; also recorded: lower the binding affinity; also recorded: eliminate ligand binding”. Besides, in data set [5], the “Tm (Ave.)” value turned out to be 62.64 °C. Also, in data set [6], the “ΔTm (Average)” value worked out at 0.22 °C.

These data come from US20260061042A1, “POLYNUCLEOTIDE COMPOSITIONS AND USES THEREOF” (Pfizer Inc., priority 2024, published 2026).
